Test results taken from paper PMC8018780 (2021).
Ends that are not written are not given here.

Experiments:
Assay in all cases: SPR
[1] = target: low-density lipoprotein receptor-related protein 1 (LRP-1), human (human)
[2] = target: recombinant human transferrin receptor (TfR) protein (human, UniProt P02786 101-760)
[3] = target: recombinant mouse transferrin receptor (TfR) protein (mouse, UniProt Q62351 1-763)

Chain of low-density lipoprotein receptor-related protein 1 (LRP-1), human (human) (Q07954 20-3943, chain 1 of 2): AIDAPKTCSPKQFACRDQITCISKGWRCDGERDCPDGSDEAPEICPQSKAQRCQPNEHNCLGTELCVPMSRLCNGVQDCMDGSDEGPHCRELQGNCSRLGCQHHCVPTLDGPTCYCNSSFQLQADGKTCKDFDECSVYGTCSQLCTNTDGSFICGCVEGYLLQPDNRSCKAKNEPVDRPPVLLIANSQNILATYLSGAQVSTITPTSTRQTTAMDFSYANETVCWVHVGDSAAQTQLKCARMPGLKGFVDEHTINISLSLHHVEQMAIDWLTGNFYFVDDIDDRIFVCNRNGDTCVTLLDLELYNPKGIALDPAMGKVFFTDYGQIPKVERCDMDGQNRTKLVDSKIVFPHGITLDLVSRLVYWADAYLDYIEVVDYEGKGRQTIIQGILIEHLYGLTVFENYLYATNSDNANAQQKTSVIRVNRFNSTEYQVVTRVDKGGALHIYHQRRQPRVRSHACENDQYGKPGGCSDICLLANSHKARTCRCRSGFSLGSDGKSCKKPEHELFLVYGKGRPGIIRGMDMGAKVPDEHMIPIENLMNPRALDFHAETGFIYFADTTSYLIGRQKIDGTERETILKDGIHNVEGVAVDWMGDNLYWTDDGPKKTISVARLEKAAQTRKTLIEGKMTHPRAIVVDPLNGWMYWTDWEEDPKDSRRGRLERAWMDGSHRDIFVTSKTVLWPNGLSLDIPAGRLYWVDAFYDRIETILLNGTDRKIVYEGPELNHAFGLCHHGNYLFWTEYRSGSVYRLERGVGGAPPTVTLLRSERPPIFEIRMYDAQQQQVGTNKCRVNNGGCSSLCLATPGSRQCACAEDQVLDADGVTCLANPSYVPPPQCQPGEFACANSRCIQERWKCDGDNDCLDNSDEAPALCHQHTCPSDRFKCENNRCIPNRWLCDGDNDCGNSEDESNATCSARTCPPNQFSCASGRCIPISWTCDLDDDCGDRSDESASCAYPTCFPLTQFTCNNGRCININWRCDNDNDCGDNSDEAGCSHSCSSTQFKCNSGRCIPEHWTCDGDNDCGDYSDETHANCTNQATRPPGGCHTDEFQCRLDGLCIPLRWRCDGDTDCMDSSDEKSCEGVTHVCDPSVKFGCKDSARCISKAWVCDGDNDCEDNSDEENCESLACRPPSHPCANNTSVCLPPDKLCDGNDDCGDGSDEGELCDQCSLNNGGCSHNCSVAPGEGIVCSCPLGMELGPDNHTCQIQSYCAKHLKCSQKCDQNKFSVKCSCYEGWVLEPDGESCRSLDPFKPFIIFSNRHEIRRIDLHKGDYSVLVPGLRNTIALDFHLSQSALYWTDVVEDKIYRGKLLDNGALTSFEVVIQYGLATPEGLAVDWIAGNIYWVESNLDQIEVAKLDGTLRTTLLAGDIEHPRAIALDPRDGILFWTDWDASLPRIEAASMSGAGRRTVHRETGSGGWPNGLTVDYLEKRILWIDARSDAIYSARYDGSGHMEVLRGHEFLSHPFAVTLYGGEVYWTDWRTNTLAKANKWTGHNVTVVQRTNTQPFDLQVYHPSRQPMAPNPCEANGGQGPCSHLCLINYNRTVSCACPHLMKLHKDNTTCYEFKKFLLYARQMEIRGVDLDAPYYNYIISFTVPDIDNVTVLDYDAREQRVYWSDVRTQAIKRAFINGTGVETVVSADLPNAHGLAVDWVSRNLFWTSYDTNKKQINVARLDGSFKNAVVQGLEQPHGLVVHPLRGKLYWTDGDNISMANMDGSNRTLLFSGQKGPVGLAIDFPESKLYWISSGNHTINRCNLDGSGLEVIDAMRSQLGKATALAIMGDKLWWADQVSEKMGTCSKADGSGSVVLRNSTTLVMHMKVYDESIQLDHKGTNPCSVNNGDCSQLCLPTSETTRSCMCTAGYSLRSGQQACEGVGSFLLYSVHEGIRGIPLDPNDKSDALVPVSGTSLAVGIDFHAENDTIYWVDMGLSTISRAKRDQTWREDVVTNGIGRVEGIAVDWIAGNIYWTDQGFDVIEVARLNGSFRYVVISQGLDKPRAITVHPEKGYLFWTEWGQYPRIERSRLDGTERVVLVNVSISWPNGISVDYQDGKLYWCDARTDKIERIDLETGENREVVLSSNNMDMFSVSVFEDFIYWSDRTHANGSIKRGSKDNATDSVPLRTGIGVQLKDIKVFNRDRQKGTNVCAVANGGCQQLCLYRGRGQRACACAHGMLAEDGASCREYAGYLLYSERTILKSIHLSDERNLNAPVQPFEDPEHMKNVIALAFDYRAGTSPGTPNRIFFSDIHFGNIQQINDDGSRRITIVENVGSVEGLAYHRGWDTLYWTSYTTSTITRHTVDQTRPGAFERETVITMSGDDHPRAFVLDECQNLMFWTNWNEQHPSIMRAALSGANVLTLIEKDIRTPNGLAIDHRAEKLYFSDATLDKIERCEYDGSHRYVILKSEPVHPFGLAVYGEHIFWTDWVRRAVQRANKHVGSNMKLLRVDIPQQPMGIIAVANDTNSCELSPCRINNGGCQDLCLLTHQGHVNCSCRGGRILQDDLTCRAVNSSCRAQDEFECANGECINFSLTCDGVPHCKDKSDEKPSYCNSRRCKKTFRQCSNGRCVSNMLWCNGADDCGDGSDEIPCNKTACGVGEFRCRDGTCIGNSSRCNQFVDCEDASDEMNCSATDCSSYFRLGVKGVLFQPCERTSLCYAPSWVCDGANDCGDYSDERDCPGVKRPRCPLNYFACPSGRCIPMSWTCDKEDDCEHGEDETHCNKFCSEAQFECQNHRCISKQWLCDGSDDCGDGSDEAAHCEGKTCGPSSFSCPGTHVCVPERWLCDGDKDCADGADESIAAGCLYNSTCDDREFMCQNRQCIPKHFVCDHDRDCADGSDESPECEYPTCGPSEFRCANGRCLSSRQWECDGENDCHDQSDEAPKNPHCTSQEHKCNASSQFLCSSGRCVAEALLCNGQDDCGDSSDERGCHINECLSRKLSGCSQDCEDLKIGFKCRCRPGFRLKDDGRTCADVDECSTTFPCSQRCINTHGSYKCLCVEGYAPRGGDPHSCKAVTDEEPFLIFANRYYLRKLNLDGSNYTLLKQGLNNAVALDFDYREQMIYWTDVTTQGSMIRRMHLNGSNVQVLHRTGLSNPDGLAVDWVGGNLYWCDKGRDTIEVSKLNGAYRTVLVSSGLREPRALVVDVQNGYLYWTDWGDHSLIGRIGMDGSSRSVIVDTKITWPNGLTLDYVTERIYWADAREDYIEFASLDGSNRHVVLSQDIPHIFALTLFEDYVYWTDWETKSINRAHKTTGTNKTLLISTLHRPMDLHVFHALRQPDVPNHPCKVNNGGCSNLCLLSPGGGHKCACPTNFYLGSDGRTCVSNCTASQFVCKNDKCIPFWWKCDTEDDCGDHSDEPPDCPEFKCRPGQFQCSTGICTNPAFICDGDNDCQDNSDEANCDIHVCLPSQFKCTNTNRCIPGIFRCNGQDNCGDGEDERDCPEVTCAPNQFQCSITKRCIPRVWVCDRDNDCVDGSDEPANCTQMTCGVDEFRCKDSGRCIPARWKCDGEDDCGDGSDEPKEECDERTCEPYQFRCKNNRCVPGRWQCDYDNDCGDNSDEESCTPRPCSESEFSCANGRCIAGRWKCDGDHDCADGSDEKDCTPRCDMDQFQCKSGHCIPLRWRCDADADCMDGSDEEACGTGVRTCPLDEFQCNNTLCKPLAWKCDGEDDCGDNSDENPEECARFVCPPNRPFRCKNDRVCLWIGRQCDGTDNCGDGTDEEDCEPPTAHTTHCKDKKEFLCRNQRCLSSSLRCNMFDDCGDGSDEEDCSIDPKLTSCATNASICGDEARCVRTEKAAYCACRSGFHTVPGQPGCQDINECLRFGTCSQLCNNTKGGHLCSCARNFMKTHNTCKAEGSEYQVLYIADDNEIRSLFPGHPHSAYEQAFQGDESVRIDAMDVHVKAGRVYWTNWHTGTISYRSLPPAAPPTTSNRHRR
Chain of low-density lipoprotein receptor-related protein 1 (LRP-1), human (human) (Q07954 3944-4544, chain 2 of 2): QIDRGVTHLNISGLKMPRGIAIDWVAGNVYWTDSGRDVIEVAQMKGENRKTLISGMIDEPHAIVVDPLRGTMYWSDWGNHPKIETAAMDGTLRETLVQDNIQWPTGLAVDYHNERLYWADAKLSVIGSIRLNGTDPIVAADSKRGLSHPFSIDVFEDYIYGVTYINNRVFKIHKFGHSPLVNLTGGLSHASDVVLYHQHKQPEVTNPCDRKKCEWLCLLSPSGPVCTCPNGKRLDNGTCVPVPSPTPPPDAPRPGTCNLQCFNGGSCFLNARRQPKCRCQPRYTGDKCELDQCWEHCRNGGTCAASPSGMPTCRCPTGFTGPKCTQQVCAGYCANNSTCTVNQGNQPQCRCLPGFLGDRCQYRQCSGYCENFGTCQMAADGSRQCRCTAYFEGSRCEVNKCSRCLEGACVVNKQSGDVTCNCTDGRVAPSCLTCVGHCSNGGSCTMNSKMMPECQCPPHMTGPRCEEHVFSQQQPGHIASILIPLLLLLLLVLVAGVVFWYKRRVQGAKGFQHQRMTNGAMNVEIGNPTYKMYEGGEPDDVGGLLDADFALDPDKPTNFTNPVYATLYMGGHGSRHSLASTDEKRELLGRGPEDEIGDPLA

Row | Binder | Kd [1] | Kd [2] | Kd [3]
1 | GYRPVHNIRGHWAPGK-NH2 [GYR (peptide 2)] | 100 nM | 171000 nM | 
2 | FRCLVENRGDVPFVTRIR-NH2 [MTfp (peptide 1), peptide derived from melanotransferrin] | 0.57 nM | 507 nM | 1300 nM
